The source of these data is a protein production outcome set (Wang et al. 2014).
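Further: failed if final PepcDB status was selected cloned or expressed and not failed if soluble or beyond.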

The series can be described thus: label from the status in PepcDB records.
As to “MSDIISIKDIDLAKKKVFIRCDFNVPQDDFLNITDDRRIRSAIPTIRYCLDNGCSVILASHLGRPKEISSKYSLEPVAKRLARLLDKEIVMAKDVIGEDAKTKAMNLKAGEILLLENLRFEKGETKNDENLAKELASMVQVYINDAFGVCHRAHSSVEAITKFFDEKHKGAGFLLQKEIDFASNLIKHPARPFVAVVGGSKVSGKLQALTNLLPKVDKLIIGGGMAFTFLKALGYDIGNSLLEEELLEEANKILTKGKNLGVKIYLPVDVVAAPACSQDVPMKFVPAQEIPNGWMGLDIGPASVRLFKEVISDAQTIWWNGPMGVFEIDKFSKGSIKMSHYISEGHATSVVGGGDTADVVARAGDADEMTFISTGGGASLELIEGKELPGVKALRSKENE”, the protein production result is given as “not failed”.

Turning to “MKLPKALNEATAGAALKYHIKRALERSHSISDFSKNLELSTQKSHFSNNTLKIIEELNNGVKQASEEIKEKARDFSNQKLTNEQIKDLLNNAEIPTSGRDAITFGVNNLNPEIVEFLHKNNKKMIIEKASNKELELLKDANFKHPENIRASLDHDAIAHILKRHGVNSVNVRNGEIPITNEDIANYRYIVNNADAILRTLDNENKELISAFKQINGYAVVVEQAINKKNELVLKTMYKSKGDYKDNNAYKKFSSTHTLNADAKVNHRLSSYSGATENTTQKDLIDQENLLKTSENLNESTPKPTNLSPLEQANAEKLAKLESEKLESEKEFLKAKEQEATRKAALKKKLEHERGNAGNIESQTKIEVGEDIPTQTQAQLPKSRVRLNEREIYDLDYAIVKAKDLKPSFTTGGTQKRTDMNEEQIKSIAENFDPKKIFGSGGFEDLPIILHDGQVIAGNHRIQGMLNFTPKSRFSYERAIKEYYHIDLKPDELLVRVPHKRLNNTEINNLAASSNQGRFNSESDHAIAVLSHYEAKLKELDQKLDADSIYSLKNIVAKNLNFDKATHPNVTDSNLALLMFNMPRTKTQGIELLNRWKKEFSNDIKSYEKVKKMFVDNAGSFHNLIHDLNFPKVSLNAYLSDIMDRSFANLKNYQSTSESLKDLSEKFYKTSSLEMFEKSDQSTSDISEILGGAIARFARFDDPSKALFEALRSDNIKKGLKDYKIADVTKDMFNADSKEFKDIDIYDFTHYLLMVNREPNENNPILKRLIEAVKDMQKESEKGIKQKLETPSEWGHNYSEFKGDGLGAINKLLETKKGFVAGAFHKEGLGDIDLVYGNSKYGLEHIFNRRESDAIDKGMSKEEAKKYALKIINNIPNIISNGKLSKDNLGRLSIEFENQRVGLNDSWKGETLNNRWVITSYEIDKSRNGLIESPLAPNYKGKDTNPLNLDSPNPTTKN”, the protein production result is recorded as “failed”.

Consider “MKIFAVVVTYNRLALLKKVIDLLKRQTRQLDSIVIVNNGSTDGTKEWLEQEKNITLINQSNSGGAGGFETGVKYAYENEADWIWMMDDDVFPNIDCLEKLLGWTSISQCIQPRRYYSDDVEVNFEQWLDPITYSKFGYWQEKSFNNGKKFCAINVGCFEGMFVSKSIVNKIGFPDKRFFIAEDDTIYGFAASFYTNVILVSDAIMVRARRSSDRSVSPMYTYYACRNFHLVYESLNLLLDKKNRFLYIKYIYQFVHQIYLSIFLYDNKMKHLISVFRGFYDCFRKKNGATYLEHHHHHH”, for which the protein production entry is given as “failed”.

In the case of “MDISGHPKTRTRTIFDEVDEPVWFCCVLPIWVGEEMASGWGITGNKGRCYDFWMDFSECMSHCREPKDCTLLREDYLECLHHSKEFQRRNRIYKEEQRKLRAASRKGEEAGDGTHNHH”, the protein production entry is reported as “failed”.

Consider “MGRGRSSSSSSIESSSKSNPFGASSSTRNLSTDLRLGLSFGTSSGTQYFNGGYGYSVAAPAVEDAEYVAAVEEEEENECNSVGSFYVKVNMEGVPIGRKIDLMSLNGYRDLIRTLDFMFNASILWAEEEDMCNEKSHVLTYADKEGDWMMVGDVPWEMFLSTVRRLKISRANYHY”, for which the protein production entry is given as “failed”.

For the sequence “MVLTKKYDKLGHILLNVFIVFCTFEVFIKGVLTLQQESSSGVNAIKIGILLFMIFAIVLKGKIKGMTTKIKGIMFIYLVFFIVLGLKILSINQMSDITGWLSDNNNLNYIFSFVCFIIILNIDIKRESVINTLIVSSTVVMVISFIFFIKNNYYGLAAPDIIQAYSMGFLNKTRMLSIFASPNHAGLYFVMVYLIVDFRGQKNLAMLFKLYKFLLIVCIMLTLSRTAIGILLLYIIIKIIRSKNAKSVVRFGIISLMVVLIGITLWIAISKYNVYFFSASYIKADNRWIKWQVAIEYIKKYWAIGAPFNIKVQMYAYVNSAITSVEFSDNLFLEIASRFGVPLIACIFIFMIKNLRRAFNEKKITDITKILVFIISSITTGSIHFTIPMILFIVYCDKFD”, the protein production result is on record as “failed”.

For the sequence “MPTPAYMSINGETQGHITKDTYSADSVGNTWQEAHVDEFLVQELDHVLTVPRDPQSGQPTGQRVHRPLVVTKVQDRSSPLLFNALVSGEKLPECLIRFYRTSVQGKQEHYYSIKLIDALLVDIQTRMNHCQDAATADRVTEEVLKFTYRAIEVTHENCGTAGNDDWRAPREA”, the protein production result is on record as “failed”.

Regarding “MSVWLLQMKTNAIITDITKSIVKMDRILVYRHTNPDPDAIGAQFGLVALLKAAYPEKLVVAMAPVPGHLAWIDTTDEQLVTPQATDLVIAVDCANHERLAGELPTGAFVIKIDHHPNHDPYGQLNWVDETYSSCSEMIYELAQAGCFTVTAAVATKLYAGIIGDTVRFSTPETSTRTLKIASALAATDIDIATISHHEMDLT”, the protein production result is “failed”.

Consider “MATRTQARGAVVELLYAFESGNEEIKKIASSMLEEKKIKNNQLAFALSLFNGVLEKINEIDALIEPHLKDWDFKRLGSMEKAILRLGAYEIGFTPTQNPIIINECIELGKLYAEPNTPKFLNAILDSLSKKLTQKPLN”, for which the protein production entry is “failed”.

As for “MLTGRRYLLAFTPEQEEFAEKIGDACRVVWNTALEQRRQYRRRGAFIGYVEQARQMAEAKKDFPWLAEAPSHTLQQTLRDLERACKTHGTFKVRWRSKRKNAPTFRFPDPKQITVERISRRWGRVKLPKLGWTRFRWTRPLGGQLRNATVLKDGGRWYISFCVEDGLMESAPNGKPPVGVDRGVTVAVATSSGWMRDREFVTPGEAVRLKRLQQQLARQRKGSNRRAATRAKLTKLNARIRARRTDFLAWTANRLTCDHGLVVVEDLNIRNMTASAKGTLAEPGRNVAAKAGLNRAILAKGWGGLLTALEHKARYHGSRILRVPPAFTSQTCHACGHCAPDNRESQAEFRCRACGHQANADVNAAKNILAAGLAVTGRGDLAVGRSVKRQPPKVEAA”, the protein production result is on record as “failed”.

Take “QYRLRQLPEVSGAMVVMDPLTGRVLAMVGGFSFDQSQFNRATQAYRQPGSSFKPLVYSAAMDNGYTPSTVVIDAPIEIDQGQGVGVWRPENYSTGKYYGPTTLRNALQRSLNTVTVRLAQDIGMPLIGEYAKRFGVYDDLPNYLSYALGAGETTVMRMVTAYSMFANGGRRVKATLIDRIQDRYGHTIFKHDQRECRGCEAPNGWKNQPEPQLVDRREQVLDPMTAYQITSMMEGVVQAGTATVLREVGKPIAGKTGTTNDEKDAWFIGFSPDLVCGVYIGYDKPRNLGRGATGGHLAAPIAKDFFKLALAEKPAVPF”: the protein production entry is “failed”.

On to “TVGILWVNWDSHVRYANRAAEEMLGYPAGGVIDRPLIDFEPNLHMDRWLNLWKRARASEEGVQSFETQCVRADGSILPADVSLSFLRFRDSEYLVVYLNDV”, for which the protein production entry was “failed”.

In the case of “MHSPQISPPIAPSTPLLAGWRSAGKAPEAAIRGEAVSLQPLDAPRHGAALFRLFAGDDSHWEHLPYGPFEDEDAFITWLALTVAQSDTALYVVCAKDSDQALGFLGYRQMVQAHGAIEIGHVNFSPALRRTRLATEAVFLLLKTAFELGYRRCEWRCDSRNAASAAAARRFGFQFEGTLRQAMVVKRRNRDTHVFSMLDGEWDALK”, the protein production entry is listed as “not failed”.

As to “MSLPSSRTRGRPARLDRARTVQTALDLLNESGLDTLTMRRLAQAMDVQAGALYRYFAAKQDLLTAMAEHMVDGVADAAGATGDGDWSERTARLARALRAALLAHRDGARVFAGTHATGPNTLRFADGLVGVLREAGFGDGDAARALYSVANFTVGHTLEEQAALTPGGGGPLDEATLREAVAAGTYPHLAATLPVLTSTDFTAHFEFGLRLLLDGLRAVRQ”, the protein production entry was “not failed”.

In the case of “MSDLTFNKIAGGVLLTGLVIFGLREASSIVFSKPEVEKAGYEIAVQEESAGGAAVVESLPDWNAVLTPANVAAGQAVAAKCAACHKFDASNANGTGPGLWDVVGRKPAAHADFNYSTGMKEFAAKTPVWDYDHLYEFLKAPGKYVSGTNMTFVGLKKQEDRIAMIAYMHSLGSKLPVPPPRPVAAPAPAEGAAPAAEGAAPAAEGAAPAAAGAAPAAPAAAAPAAPKA”, the protein production result is “failed”.

Consider “KNASVITVGNEILKGRTVNTNAAFIGNFLTYHGYQVRRGFVVMDDLDEIGWAFRVALEVSDLVVSSGGLGPTFDDMTVEGFAKCIGQDLRIDEDALAMIKKKYGQADLTPQRLKMAKIPPSCRPIENPVGTAPGLICAVGGKKVIILPGVPKEMEALLKAMEKDIIIPD”, for which the protein production result was “not failed”.

As for “KEGVLCLNTKGQITYANSQALKLLGGSLEELYGKTPQHYFTLENTEGKGMGELLERVLCGESTLQEGSGTLYKKERFLAHVEFTLSPIIDKG”, the protein production result is “failed”.

On to “PFKAGKARGLTTEQLNTRLDIDEFETGLMRLAQDSFSTDDYLFQEGQYLDEDTVLSWLARKKTGSDLKKAEKEDKNFKNEGLNPALPSSGSTEEKNESSPIYLASMLEHDYLVRKDKNSIQLGGVMIGLALNSVYYYREKTGDPQKEVEIKDSTLRQQGEKIAQEVINRLRKKDNLKNVPITVALYKQASKTSIVPGNFIAKTEVKAGSTDISNWDDINEKYVFYPADTTTAEKYPDDTEVFKRFKNSIEEYFPNYTGVVGTALYENDEMKKMKIDIPMQFYGKSEVVAFTQFLTGEVMDYYSKSSVDVEVNITSSDGQEAVIIRNAGDKEPTVHIYD”, for which the protein production result is “failed”.

Turning to “VGKEKAEVELLQVDVDLQADIVAKYNAQLQKAVQVEEKKAREAATEAVKEMVKAEYEERYAEDENLATIMRDVAEILEQMEHAEVRRLITEDKIRPDGRKIDEIRP”, the protein production result is “failed”.

On to “MTDKKSENKTIQGASSLSLENRKILSITGVNEVINFDEEKISLKTDLGPLLIKGSELKMNKLDVQNGEVIIGGFISNIDYLNKKNKRKRNINLLSKIFKLEHHHHHH”, for which the protein production entry is recorded as “not failed”.

In the case of “MNILLRLQLFFQITGHYASYFLAYIFETIFFLIFVFVSLIAMIYLFRKYMARLQLRYGPNRVGKFGSLQLIADAIKLVGKESILPKLRDDFAYKTAPYIVFIGLVVGFILIPYGDFYWIGSLTITHSDVSLILFFGAIAMMPIGEILAGISSHNKYALLGAMRGVAKDVSFEVPMMLSAIALVMMDSAVNKTPLEFSSLVSTQFIPFGILQPLGLFVFMVAMIARSSYTPFDLSESDSEIVSGYSTEYSGMRFGLFYMGMFGSIFLGSLVISLLYLGGYNGPYSSYAGFIYLLIKGLIMVLISFLIWLSMPRIRIDRFVNFGWKILLPIAIINLIWAGFLTLGVIS”, the protein production result is “failed”.

Turning to “MVGRRVSPALTKDDAHSYIIAVKETFHDEPTKYQEFIKLLNGVCDHRVDKYSVIARVEELMKDHQDLLLGFSVFLPPVSVEDFINKLKSKFVHLQTRFQSLDTHVVGAIRGLMKMFKEGKMSVKEVQEEVIDVLFYHEDLIEDFLRFFTKNPVSTASLLLQL”, the protein production entry is listed as “failed”.

Consider “MKARAILLASVLLVGCQASKHDGTVEQRAQSLSAAGQGEAGKFTSQARWLDDGTFYAQDQDLWTSIGDELKMGIPDNPRIREQKQKYLRNKSYLHDVTLRAEPYMYWIAGQVKKRNMPMELVLLPIVESAFDPHATSGANAAGIWQIIPSTGRNYGLKQTRSYDARRDVVASTTAALDMMQRLNKMFDGDWLLTVAAYNSGEGRVMKAVKANRSRGKPTDFWSLSLPHETKIYVPKMLALSDILKNSKRYGVKLPTADESRALARVRLDSPVDISQLADMAGMPVSKLKTFNAGVKGSTLGASGPKYVMVPQKHAAQLRESLASGDIAAVQPTQLADNTPLTSRSYKVRSGDTISGIASRLGVTTRDLQQWNNLRGSGLKVGQNLVIGAGSSAQRLANNSDSITYRVRKGDSLSSIAKRHGVNIRDVMRWNSDTDNLRPGDQLTLFVKNNDRPES”, for which the protein production entry is given as “failed”.
